Results as given in publication PMC9848473.

How the values were obtained:
[1] = target: RelBs^NTD Y279A (B. subtilis); test: ITC; DarB or DarB variant (200 uM) in the syringe titrated into RelBs^NTD or variant (15 uM) in the cell; 25 °C; 50 mM Hepes pH 7.5, 500 mM KCl, 500 mM NaCl, 10 mM MgCl2, 1 mM TCEP, 0.002% mellitic acid
[2] = target: Bacillus subtilis Rel N-terminal domain region (RelBs^NTD; residues 1 to 373) (Bacillus subtilis); test: ITC; DarB or DarB variants in the syringe at 200 μM, RelBs^NTD or variants in the cell at 15 μM; 25°C; 50 mM Hepes pH 7.5, 500 mM KCl, 500 mM NaCl, 10 mM MgCl2, 1 mM TCEP, 0.002% mellitic acid
[3] = target: Rel (Bacillus subtilis) (UniProt O54408); conditions: cited from earlier work

Substance | Kd [1] [µM] | Kd [2] [µM] | Kd [3] [µM]
Bacillus subtilis DarB (from UniProt O31698 1-147) (natural protein) | 4 | 1.4 | 
DarB (from UniProt O31698) |  |  | 0.65
